The source of these data is article PMC9444907.

Where two headings read alike, the source gives them in different places. Some results are limits rather than exact numbers.

Test [1] addresses Rb pocket domain (Homo sapiens) (UniProt P06400). The following applies: cited from earlier work.
For test [2], the target named is p107ΔL pocket domain (residues 389-972, Δ600-779, Δ888-923) (human). The test is described as follows: ITC. Background: In ITC the heat of successive injections is recorded.
The target of test [3] is human Rb pocket domain lacking the single internal loop (residues 380-787; Δ582-642) (human) (UniProt P06400). The test is described as follows: ITC.
In test [4] the target is p107 pocket domain M865V (human). The test is described as follows: ITC.
Test [5] addresses p107 pocket domain V939M (human). Put plainly: ITC.
The target of test [6] is Rb pocket domain (Homo sapiens) (UniProt P06400). As to conditions: cited from earlier work. This is another data set of the same source.

Turning to HPV16 E7 peptide (from UniProt P03129), the Kd in test [1] is 5 nM.

The substance “HDAC1 triple (3X) mutant peptide R413D/A415Y/E417Y” yielded a Kd in test [2] of 105 nM.

On to EID1 peptide G179Y/D181Y, for which the Kd in test [3] stood at 170 nM; in test [2] it was 250 nM.

Take EID1 peptide E176R/E177R: the Kd in test [3] was determined as 9000 nM; in test [2], 14000 nM.

For the substance human ARID4A LxCxE motif peptide, the Kd in test [3] was determined as 140 nM; in test [4], 120 nM; in test [5], 330 nM; in test [2] it was 1600 nM.

ARID4A peptide E955R registered a Kd in test [2] of 2300 nM.

In the case of “PRDM2 IxCxE peptide (from UniProt Q13029)”, the Kd in test [6] was 640 nM.

human EID1 LxCxE motif peptide: the Kd was 6000 nM in test [3] and 7000 nM in test [2].

Regarding human HDAC1 LxCxE motif peptide, the dissociation constant Kd in test [2] was greater than 10000 nM.

As usually defined, the Kd is the equilibrium constant for the complex coming apart.
